In the supplement of paper PMC12042874:
± gives the uncertainty stated by the source.

Experiment: amyloid nucleation score (Sup35N fusion, yeast selection) (log enrichment); library NNK2; higher = more nucleation; inactive = no reads after selection
Procedure, shortened: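 The nucleation score is the DiMSum log enrichment of output over input reads, centred on the mode score of non-aggregating sequences. Only sequences with 100 or more input reads were scored, using Illumina sequencing of input and output plasmid inserts. Psi-negative yeast expressing Sup35N fused to peptides of 20 random codons were induced 24 hours with 100 μM copper sulfate and grown 7 days at 30°C on medium lacking adenine and uracil.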

| Substance | amyloid nucleation score |
| --- | --- |
| ESASTVTVCLRRVKVSHR | 5.204 ± 0.045 |
| LLTCEASRTPARSQLLASEG | 0.851 ± 0.4 |
| LVTECNRDGTLDG | -0.582 ± 0.49 |
| TGAVKLTSAAIINCTYHARM | inactive |
| LIRVYRKVGLVTLLHGMNRM | 0.039 ± 0.32 |
| CEMLCQTIHSTLTWGIRRLS | 1.12 ± 0.46 |
| NGFYSGDFWEADGTRLDVTC | 0.053 ± 0.79 |
| GKFVLFRMMFNLVNYRSVLQ | -0.731 ± 0.25 |
| CFVGTQLSFKVG | 0.173 ± 0.49 |
| IYRGESIIWVNNSWIEDSLR | 1.56 ± 0.12 |
| SSYTLGFFRCNRFWCLCIDC | -1.2 ± 0.56 |
| FSLFWWMSHITREWISCMCM | -0.895 ± 1.1 |
| VTRFLISYTRIGRMYSVGFV | -0.523 ± 1 |
| GPSLDLDNVDYIGDSTTYQL | inactive |
| LFFYTYWC | inactive |
| VSQARVLCFMNFGRFLTLNE | 5.51 ± 0.09 |
| PVIIAW | 0.14 ± 1 |
| LYSLEKTCQVELCRRISTLL | -1.35 ± 0.75 |
| FYCIARERLRMVNFT | -0.845 ± 0.62 |
| DVQWTGPRPFPFV | 0.679 ± 0.4 |
| YSYVGFIF | 1.49 ± 0.32 |
| LLWLPR | 0.376 ± 0.31 |
| IRSFVSIRMFVCGRSDLRSN | -0.22 ± 1.1 |
| RFTVFRSLKNYSRMHPLIKG | 4.929 ± 0.046 |
| SNMIHDEIWLMGEDSDF | 0.674 ± 0.49 |

| Substance | amyloid nucleation score |
| --- | --- |
| VSITHQLTYW | 1.33 ± 0.53 |
| PLVEDLRSIYLVRCSAYLQR | 0.593 ± 0.33 |
| RVPSSHF | 1 ± 0.47 |
| LCERYWKALK | inactive |
| VMRIVMIDMKSESWSTERVS | 0.611 ± 0.57 |
| FFIESSMLWYWDLKRYPMTL | -0.225 ± 0.54 |
| AFRDRWLKRMKLTYVVGCIN | -0.17 ± 0.45 |
| RGGTKRGELCDALNHQFSVL | 0.413 ± 0.22 |
| LCVYMFT | 3.51 ± 0.12 |
| SQPSDWVYFNVGYCCVLMCL | 9.398 ± 0.027 |
| VVNSQQFVGLCSRRSA | 0.576 ± 0.42 |
| RFRCTTSSLRGLFWPNTWKK | -0.301 ± 0.76 |
| HIIIFLWYRRHFSS | 1.78 ± 0.22 |
| GPVLGEFVEGSGNANGDEQV | -0.107 ± 1 |
| SSLSGYGSYGLLPRWLRLVT | 1.81 ± 0.4 |
| SGDGVLVSFSKDSGFQSFGS | 0.673 ± 0.2 |
| LMWADLLLKKLILFA | -0.334 ± 0.64 |
| SNPDSLVLAGMLARMAYRKL | -0.423 ± 0.61 |
| EARSGVNGRARSMFLIGRYS | -0.262 ± 0.63 |
| RLYWVGGATGRFD | 2.02 ± 0.19 |
| LKRNMWFLYRGTFARSYYAN | -1.03 ± 0.55 |
| HSMSYFDYAIRLDRVGDVIS | 0.339 ± 0.38 |
| AMWFN | 0.932 ± 0.47 |
| RFILMNLAIVVDFVGS | 6.92 ± 0.078 |
| SIVMFVCDLRNQPTAIFRDR | 8.256 ± 0.074 |

| Substance | amyloid nucleation score |
| --- | --- |
| VWDRITLFCSLLIRVHGLCT | 0.269 ± 0.29 |
| TFSWMTPNWRSHYMLDCDPG | -0.502 ± 0.79 |
| FCFMIEGIFMCRLLLSRASF | inactive |
| YLAFSMEHAGCLHHRVSGIM | 5.46 ± 0.084 |
| LSKINVFWKSSTALQCLAPE | -0.322 ± 0.55 |
| RHFMLSSTCPEGMNENGTFS | 0.811 ± 0.51 |
| YPEADALLRFGVMDIHN | 0.085 ± 0.36 |
| CNEDFLSQLVVLHFKEYGDN | inactive |
| RACFHHIIGDCCYASFN | 8.757 ± 0.05 |
| CVMNF | -0.586 ± 0.42 |
| FSWFDWKGYVLSWIRSYSSE | inactive |
| NCFDKMHKIWLFLLSLSIFC | inactive |
| KYGAPS | -0.029 ± 1.1 |
| DYIFGYSTILFVMLCIHNFY | -1.35 ± 0.78 |
| RIIYEAC | -0.865 ± 0.23 |
| MFEIIPFPTSISDRGSTIYM | -0.855 ± 0.55 |
| RNLGLMVTILSAELFRRCLW | -0.812 ± 0.23 |
| LVGWSGLLTDALEFLLSKDV | -0.592 ± 0.76 |
| LIGAATSKNVIRCNGWDGDQ | 0.848 ± 0.57 |
| TVLCTRRLAWRYRLHFFFQ | 3.16 ± 0.073 |
| TFNYHVTYFLGHFFSTYGRF | 3.49 ± 0.064 |
| CARFAN | 0.599 ± 0.64 |
| RNEQMSPCITWVNYPDYLRT | 0.909 ± 0.6 |
| LVGMSATYPTHNWFKVRTYF | -0.104 ± 0.76 |
| YYSCPASLLFNTGLPVKYSW | -1.26 ± 0.36 |

| Substance | amyloid nucleation score |
| --- | --- |
| SNRHSVRKAAWIWGRDFLRA | 0.346 ± 0.38 |
| IFVGVNCIQKISKRYGWYLC | 0.214 ± 0.77 |
| ASPFRF | 0.816 ± 0.74 |
| HGKRFYAECLIVFPIDKRGA | 0.098 ± 1 |
| IVLQSGR | -1.12 ± 0.63 |
| SFSVYRFVGTLSGYADLGLG | 0.302 ± 0.37 |
| RVCMINSYLLVTRCVGDN | 8.387 ± 0.028 |
| GMPFG | 0.044 ± 0.28 |
| TSRPMALQGYSGNSDDVTYV | 0.445 ± 0.65 |
| LFINNDTNDNYH | -1.18 ± 0.47 |
| FIAYRFWFWKGVSASKEHGQ | 0.433 ± 0.62 |
| SEWSRDRKRVKVSHFA | 0.465 ± 0.17 |
| MLPIRRIMQQFHGKPYNCYT | inactive |
| TAHHITSVWYVVLVRLRFRQ | 1.76 ± 0.35 |
| RCRFPVVIKQRDLVKEVMV | -0.222 ± 0.46 |
| YLKFIKANVRTSGKKLA | -0.562 ± 1.1 |
| VSSETSGFMIGYLYVDLNGV | -0.814 ± 0.4 |
| IYGSYVLDLVGVNLAGKGEN | -0.347 ± 1 |
| GWMHFVALKGFSNHGRAGSG | 0.448 ± 0.57 |
| PNALQGSRDVCTLKRLASEA | 0.238 ± 0.57 |
| FLVYTWSFRNSCRPDLKVVE | 0.126 ± 0.8 |
| LLWWMCQYEIFWDKMLYLES | 0.074 ± 1 |
| SNFETDTL | 1.82 ± 0.14 |
| MTYIRFPLMQGHFWIMSNSK | 0.181 ± 0.35 |
| THYTDIIFFQEGLY | inactive |

| Substance | amyloid nucleation score |
| --- | --- |
| ALIRFCTSW | 0.588 ± 0.16 |
| IVHILYECGAFRLPRGLY | -0.538 ± 0.38 |
| LYSVGFRLTS | inactive |
| YEVSIIFCRLFSILIRPGTS | -1.1 ± 1.1 |
| GFHQFPVDVVALGWSILRCF | -0.075 ± 0.31 |
| RVPGPVHSSCYTAARFFCPM | 1.83 ± 0.14 |
| AFEFQYFIGGFRTRIMNCVF | inactive |
| PHRSPMGANHPERCLVPMLF | -0.134 ± 0.55 |
| YQDSKRE | -0.833 ± 1.1 |
| STMAFWSYHGWCYGVLIL | -0.898 ± 0.61 |
| LEMCVLR | 0.23 ± 0.45 |
| LSVCLAKPTCDVSF | 0.201 ± 0.33 |
| KISFVALAVDARYGWCLFHY | 0.358 ± 0.24 |
| MGVLEGLSWVSRNKISGVLQ | -0.191 ± 0.55 |
| RLTDSSTGDFKNL | -1.45 ± 0.61 |
| IVDHVYCIVILDLEHFFYNE | 5.02 ± 0.083 |
| PGLRGGA | -0.398 ± 0.76 |
| FGSVRASGISDFGRMDHGTG | -0.079 ± 0.76 |
| DYMFIDLASSNTNLRSWSHS | -0.408 ± 0.37 |
| ESIVDWSYCFLTTFMSPRWA | 0.193 ± 0.65 |
| IAGLTISSAISGSWDVVKPS | 4.38 ± 0.052 |
| SISALLFIPAHRTIMAG | -1.69 ± 1.1 |
| KGDQKSTFCVRPFWESPNIV | -0.046 ± 0.74 |
| WSVVLWDVEGYWASASSQLW | 0.907 ± 0.35 |
| KLRFYIYCFILLKCMTGART | inactive |

| Substance | amyloid nucleation score |
| --- | --- |
| GMRVMVLFDFLYYRCLENLL | -0.632 ± 1.1 |
| SLSTHIFLSSGLSLTFKKRS | inactive |
| TYFYSWYGKYPADSRFY | -0.488 ± 1 |
| WTTYLGSFKWRNRVKWWPAP | 1.88 ± 0.18 |
| ESGVWCKAPFYMSVTLSIHS | -0.487 ± 0.56 |
| RRVGLSGRTKMSG | 0.048 ± 0.55 |
| WFMVYYSLFTVNIGISRMDH | 3.52 ± 0.16 |
| TDVFCLDKSVQTRILTEVAT | -0.439 ± 0.41 |
| IHWNKIMRFTFKYGILLYPS | -0.525 ± 1.1 |
| DKSCLISVMLICLL | 5.21 ± 0.059 |
| QGMNPLQSLDVKCYYL | inactive |
| MANVADMIVDGLM | 0.525 ± 0.49 |
| FNDLMYVNYLLCMVH | 4.04 ± 0.095 |
| VACCFNSQYSEAI | 3.99 ± 0.076 |
| WSYCVNERSVIKQGLTCAYV | -0.28 ± 0.76 |
| WGICSTEVSVIEWDWNGYQF | -1.14 ± 1.1 |
| REFQWCRSLMRYVRGWLVV | 3.19 ± 0.16 |
| FWLSSESANYTCFKRYVG | 0.25 ± 0.47 |
| RVSDRHV | 1.42 ± 0.099 |
| SICASWNRINGIVTKLGWSE | -0.739 ± 0.32 |
| SVVGSYYI | -0.878 ± 0.36 |
| LCWEVRTLEFIGFTQSYGKG | -0.005 ± 0.33 |
| NLPSWLVGRRSVWECYRLDT | 0.043 ± 1 |
| DVYTQASLGMS | inactive |
| PLLGLRG | 0.102 ± 1.1 |

| Substance | amyloid nucleation score |
| --- | --- |
| ISWVLRCQSKSRWLIQ | 0.627 ± 0.57 |
| LINVMLS | inactive |
| LIDNFS | -0.351 ± 0.45 |
| TVMTFEYSEHVFRDMDT | -0.501 ± 1 |
| EGIVAMAERYYSSNIRAVTW | 0.296 ± 0.32 |
| SARSIERSDYPMINARHHAC | 0.031 ± 0.34 |
| SMYVINRSI | -0.198 ± 0.31 |
| MCPNGPAVIGMLFRLHTLFK | 0.168 ± 0.35 |
| MSSPD | 6.596 ± 0.034 |
| FYSLTDPCICGCH | -0.341 ± 0.79 |
| SYADRVILLVSCVVPWAPLR | 3.31 ± 0.15 |
| MRTRWAVITKMFRRGWEVKV | 0.753 ± 0.67 |
| CDQYLIYNLSVSGMSIASRG | -0.497 ± 0.79 |
| FINSVVKLLLGNDMSCYSCH | 5.65 ± 0.081 |
| YSHAGEASWDYVSLWFSSRK | 0.49 ± 0.46 |
| YNQSMYFRVLGFYTYPSDRG | 2.32 ± 0.07 |
| LHNMNWPLFVLVACLVDIPT | -0.724 ± 0.42 |
| IIHSLARFIC | -0.594 ± 0.26 |
| SDYHLFTYTLGINSTLDGRV | -1.3 ± 0.38 |
| FIVSDSRCVGNVTNGQSVLS | -0.97 ± 0.63 |
